For orientation: stoichiometry N means a count of units in the complex or per binding partner.

Test [1] addresses TGFBIp R124H (residues 45–632) (human) (UniProt Q15582). In words: SEC; calibrated SEC, Superdex 200 Increase 10/300 GL in PBS; TGFBIp at 7 μM.
Test [2] shares this target. In words: in-line SEC-SAXS; in-line Superdex Increase 200 3.2/300 in 20 mM Tris, 150 mM NaCl, pH 7.4; ~0.5 to 1 mg/ml; rigid-body modeling. For orientation: In gel filtration, larger molecules generally elute earlier.
Test [3] addresses TGFBIp R555W (residues 45–632) (human) (UniProt Q15582). As to the kind of experiment: SEC; calibrated SEC, Superdex 200 Increase 10/300 GL in PBS; TGFBIp at 7 μM.
For test [4] the target is unchanged. As to the kind of experiment: in-line SEC-SAXS; in-line Superdex Increase 200 3.2/300 in 20 mM Tris, 150 mM NaCl, pH 7.4; ~0.5 to 1 mg/ml; rigid-body modeling.
Test [5] addresses TGFBIp A546T (residues 45–632) (human) (UniProt Q15582). In words: SEC; calibrated SEC, Superdex 200 Increase 10/300 GL in PBS; TGFBIp at 7 μM.
For test [6], the target named is wildtype transforming growth factor-β–induced protein (TGFBIp), residues 45–632 (human) (UniProt Q15582). Described as above.
For test [7] the target is unchanged. In words: in-line SEC-SAXS; in-line Superdex Increase 200 3.2/300 in 20 mM Tris, 150 mM NaCl, pH 7.4; ~0.5 to 1 mg/ml; rigid-body modeling.

In the case of “TGFBIp R124H (residues 45–632) (from UniProt Q15582 45-632) (domain or fragment)”, the stoichiometry N in test [1] and in test [2] was 2 each time.

For “TGFBIp R555W (residues 45–632) (from UniProt Q15582 45-632) (domain or fragment)”, the stoichiometry N in test [3] and in test [4] was 2 throughout.

“TGFBIp A546T (residues 45–632) (from UniProt Q15582 45-632) (domain or fragment)” had a stoichiometry N in test [5] of 2.

“wildtype transforming growth factor-β–induced protein (TGFBIp), residues 45–632 (from UniProt Q15582 45-632) (domain or fragment)”: the stoichiometry N in test [6] and in test [7] was 2 in each case.

Source of the values: paper PMC8220419.
